Reference: patent publication US20170121425A1 (ACADEMIA SINICA, published 2017)

How the values were obtained:
[1] = target: T1, mIgE.FcS (CH2-cytoplasmic tail of the short form of human membrane ε chain) on Ramos cells (human, UniProt P01854-3 104-494, limits assumed); experiment: flow cytometry on mIgE.FcS-expressing Ramos cells, FITC anti-human IgG-Fc detection, geometric mean intensity
T1 construct: domain: CH2-cytoplasmic tail of the short form of membrane ε chain; also called mIgE.FcS Ramos
Method: (§1) Ramos cells expressing mIgE.FcL or mIgE.FcS were resuspended in FACS buffer (1% FBS and 0.1% sodium azide in 1×PBS) at a cell density of 2×10⁶ cells/mL. […] Bound antibodies were detected by FITC-labeled goat IgG specific for human IgG-Fc (Caltag Laboratories). The stained cells were analyzed on a FACS Canto II flow cytometer (BD Biosciences). The geometric means of fluorescence intensity for the binding of antibodies to Ramos cell lines were analyzed using the FCSExpress software (DeNono software). The EC₅₀ was calculated using the Prism software.

[2] = target: Fc region of human IgE (ε.Fc 2-4), Ser226 to Gly599, N265Q and N371Q (human) (UniProt P01854); experiment: competition ELISA on coated ε.Fc 2-4; competitor HRP-conjugated c8D6 at fixed dilution, unconjugated antibody titrated
[3] = target: T2, mIgE.FcL (CH2-cytoplasmic tail of the long form of human membrane ε chain) on Ramos cells (human, UniProt P01854 104-546, limits assumed); experiment: flow cytometry on mIgE.FcL-expressing Ramos cells, FITC anti-human IgG-Fc detection, geometric mean intensity
T2 construct: domain: CH2-cytoplasmic tail of the long form of membrane ε chain; also called mIgE.FcL Ramos
Method: as §1

[4] = target: T1, mIgE.FcS (CH2-cytoplasmic tail of the …); experiment: flow cytometry on mIgE.FcS-expressing Ramos cells; c8D6, not hu8D6
Method: as §1

[5] = target: Fc region of human IgE (ε.Fc 2-4), Ser226 to Gly599, N265Q and N371Q (human) (UniProt P01854); experiment: ELISA, ε.Fc 2-4 coated on the plate, antibody titrated, OD450
[6] = target: Fc region of human IgE (ε.Fc 2-4), Ser226 to Gly599, N265Q and N371Q (human) (UniProt P01854); experiment: competitive ELISA on coated ε.Fc 2-4; competitor HRP-conjugated c8D6
[7] = target: Fc region of human IgE (ε.Fc 2-4), Ser226 to Gly599, N265Q and N371Q (human) (UniProt P01854); experiment: ELISA, ε.Fc 2-4 coated, antibody titrated

Sequence of Fc region of human IgE (ε.Fc 2-4), Ser226 to Gly599, N265Q and N371Q (human) (P01854 106-427, stated change not applied): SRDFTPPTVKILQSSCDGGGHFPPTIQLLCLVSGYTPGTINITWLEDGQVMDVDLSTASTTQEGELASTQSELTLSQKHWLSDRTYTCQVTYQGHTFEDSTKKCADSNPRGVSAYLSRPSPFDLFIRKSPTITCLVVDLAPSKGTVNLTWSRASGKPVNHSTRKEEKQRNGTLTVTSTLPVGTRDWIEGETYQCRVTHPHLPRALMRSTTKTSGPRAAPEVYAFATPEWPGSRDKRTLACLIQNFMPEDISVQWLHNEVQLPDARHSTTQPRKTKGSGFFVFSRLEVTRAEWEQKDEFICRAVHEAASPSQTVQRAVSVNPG
T1 sequence (P01854 other isoform, or with tags, fused parts or gaps limits assumed): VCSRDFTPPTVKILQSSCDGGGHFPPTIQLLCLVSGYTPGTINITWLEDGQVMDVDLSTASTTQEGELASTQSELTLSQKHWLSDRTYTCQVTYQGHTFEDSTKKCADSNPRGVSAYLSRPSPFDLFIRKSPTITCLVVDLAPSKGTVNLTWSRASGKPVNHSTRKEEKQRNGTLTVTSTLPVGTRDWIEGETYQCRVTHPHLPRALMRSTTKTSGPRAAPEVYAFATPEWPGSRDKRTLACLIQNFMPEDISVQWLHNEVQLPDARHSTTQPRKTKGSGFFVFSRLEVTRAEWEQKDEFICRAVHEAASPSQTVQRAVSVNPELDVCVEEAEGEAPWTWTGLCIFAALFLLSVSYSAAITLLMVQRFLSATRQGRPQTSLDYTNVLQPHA
T2 sequence (P01854 104-546 limits assumed, form in doubt): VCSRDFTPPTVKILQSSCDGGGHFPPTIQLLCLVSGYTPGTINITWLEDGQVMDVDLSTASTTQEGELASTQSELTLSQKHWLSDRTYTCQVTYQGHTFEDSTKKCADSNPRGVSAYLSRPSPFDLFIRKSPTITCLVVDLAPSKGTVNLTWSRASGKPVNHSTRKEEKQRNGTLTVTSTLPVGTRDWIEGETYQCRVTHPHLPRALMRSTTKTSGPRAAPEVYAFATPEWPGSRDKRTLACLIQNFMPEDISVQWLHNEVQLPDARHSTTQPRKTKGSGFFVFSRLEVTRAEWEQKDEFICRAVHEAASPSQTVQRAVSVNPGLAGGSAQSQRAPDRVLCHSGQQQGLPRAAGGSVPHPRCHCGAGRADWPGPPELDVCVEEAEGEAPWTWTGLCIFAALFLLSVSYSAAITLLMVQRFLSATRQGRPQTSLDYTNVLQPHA

B1: chimeric 8D6 antibody (antibody, V domains shown)
VH: QVQLQQSGAELAKPGASVMLSCKASGYTFNGYWMHWVKQRPGQDLEWIGYINPTTGHTEYNQKFKDKATLTADESSNTAYIELSSLTSDDSAVYYCARQEYRHSWFAYWGQGTLVTVSA
VL: DIVLTQSPASLAVSLGQRATISCKASQSVDYDGDTYMNWYHQKPGQPPKLLIYAASNLDSGIPARFSGSGSGTDFTLNIHPVEEEDAATYYCQQTNEDPWTFGGGTKLEIK
notes: c8D6 is the chimeric form of 8D6 with human constant regions (detected with anti-human IgG-Fc); also called parent c8D6 antibody; HRP-conjugated c8D6
EC50 (read off the curve) [1]: ~0.04 mg/L
IC50 (read off the curve) [2]: 0.4 mg/L
EC50 (read off the curve) [3]: ~0.03 mg/L
EC50 [4]: 0.3 nM
EC50 (read off the curve) [5]: 0.02 mg/L
IC50 [6]: 2.28 nM
EC50 [7]: 0.116 nM
